Experimental data published in the Immune Epitope Database (IEDB).

Assays:
HLA-A*24:02 = test: IEDB peptide-MHC binding, purified MHC/competitive/fluorescence; ≥ and ≤ were set here for values at or beyond the usual limits of such assays; conditions: source organism: Zaire ebolavirus
HLA-B*08:01 = test: as above
HLA-B*07:02 [1] = test: as above
HLA-C*12:03 = test: IEDB peptide-MHC binding, purified MHC/direct/fluorescence; filed as Kd, often an IC50 or EC50 that approximates it; ≥ and ≤ were set here for values at or beyond the usual limits of such assays
HLA-A*02:01 [2] = test: IEDB peptide-MHC binding, purified MHC/competitive/fluorescence; filed as Kd, often an IC50 or EC50 that approximates it; ≥ and ≤ were set here for values at or beyond the usual limits of such assays
HLA-A*03:01 [3] = test: IEDB peptide-MHC binding, purified MHC/competitive/radioactivity; filed as Kd, often an IC50 or EC50 that approximates it; ≥ and ≤ were set here for values at or beyond the usual limits of such assays; conditions: source organism: Vaccinia virus WR
HLA-A*11:01 = test: as above; conditions: source organism: Vaccinia virus WR
HLA-A*31:01 = test: as above; conditions: source organism: Vaccinia virus WR
HLA-A*33:01 = test: as above; conditions: source organism: Vaccinia virus WR
HLA-A*68:01 = test: as above; conditions: source organism: Vaccinia virus WR
HLA-B*07:02 [4] = test: as above; conditions: source organism: Vaccinia virus WR
HLA-B*35:01 = test: as above; conditions: source organism: Vaccinia virus WR
HLA-B*51:01 [5] = test: as above; conditions: source organism: Vaccinia virus WR
HLA-B*53:01 = test: as above; conditions: source organism: Vaccinia virus WR
HLA-B*54:01 = test: as above; conditions: source organism: Vaccinia virus WR
HLA-B*58:01 = test: IEDB peptide-MHC binding, purified MHC/direct/fluorescence; filed as Kd, often an IC50 or EC50 that approximates it; ≥ and ≤ were set here for values at or beyond the usual limits of such assays
HLA-C*15:02 = test: as above
HLA-A*02:01 [6] = test: IEDB peptide-MHC binding, purified MHC/competitive/fluorescence; ≥ and ≤ were set here for values at or beyond the usual limits of such assays; conditions: source organism: Vaccinia virus Copenhagen
HLA-C*07:02 = test: IEDB peptide-MHC binding, purified MHC/direct/fluorescence; filed as Kd, often an IC50 or EC50 that approximates it; ≥ and ≤ were set here for values at or beyond the usual limits of such assays
HLA-B*39:01 = test: IEDB peptide-MHC binding, purified MHC/competitive/fluorescence; filed as Kd, often an IC50 or EC50 that approximates it; ≥ and ≤ were set here for values at or beyond the usual limits of such assays
HLA-A*02:03 = test: IEDB peptide-MHC binding, purified MHC/direct/fluorescence; filed as Kd, often an IC50 or EC50 that approximates it; ≥ and ≤ were set here for values at or beyond the usual limits of such assays; conditions: source organism: Zaire ebolavirus
HLA-A*02:11 = test: as above; conditions: source organism: Zaire ebolavirus
HLA-A*02:12 = test: as above; conditions: source organism: Zaire ebolavirus
HLA-A*02:16 = test: as above; conditions: source organism: Zaire ebolavirus
HLA-A*02:19 [7] = test: as above; conditions: source organism: Zaire ebolavirus
HLA-A*03:01 [8] = test: as above; conditions: source organism: Zaire ebolavirus
HLA-A*23:01 = test: as above; conditions: source organism: Zaire ebolavirus
HLA-A*24:03 = test: as above; conditions: source organism: Zaire ebolavirus
HLA-A*29:02 = test: as above; conditions: source organism: Zaire ebolavirus
HLA-A*68:02 = test: as above; conditions: source organism: Zaire ebolavirus
HLA-B*40:01 = test: as above; conditions: source organism: Sudan ebolavirus - Maleo (1979)
HLA-A*26:01 = test: IEDB peptide-MHC binding, purified MHC/competitive/fluorescence; filed as Kd, often an IC50 or EC50 that approximates it; ≥ and ≤ were set here for values at or beyond the usual limits of such assays; conditions: source organism: Zaire ebolavirus
HLA-A*69:01 = test: as above; conditions: source organism: Zaire ebolavirus
HLA-B*15:01 [9] = test: as above; conditions: source organism: Zaire ebolavirus
HLA-B*15:17 [10] = test: as above; conditions: source organism: Zaire ebolavirus
HLA-B*27:03 = test: as above; conditions: source organism: Zaire ebolavirus
HLA-B*46:01 = test: as above; conditions: source organism: Zaire ebolavirus
HLA-B*51:01 [11] = test: as above; conditions: source organism: Zaire ebolavirus
HLA-B*57:01 [12] = test: as above; conditions: source organism: Zaire ebolavirus
HLA-B*15:17 [13] = test: IEDB peptide-MHC binding, purified MHC/direct/fluorescence; filed as Kd, often an IC50 or EC50 that approximates it; ≥ and ≤ were set here for values at or beyond the usual limits of such assays; conditions: source organism: Salmonella enterica subsp. enterica serovar Typhimurium
HLA-B*57:01 [14] = test: as above; conditions: source organism: Salmonella enterica
HLA-A*02:19 [15] = test: IEDB peptide-MHC binding, purified MHC/competitive/fluorescence; filed as Kd, often an IC50 or EC50 that approximates it; ≥ and ≤ were set here for values at or beyond the usual limits of such assays; conditions: source organism: Toxoplasma gondii RH
HLA-B*15:01 [16] = test: IEDB peptide-MHC binding, purified MHC/direct/fluorescence; filed as Kd, often an IC50 or EC50 that approximates it; ≥ and ≤ were set here for values at or beyond the usual limits of such assays; conditions: source organism: Reston ebolavirus - Reston
HLA-B*18:01 = test: IEDB peptide-MHC binding, purified MHC/competitive/fluorescence; filed as Kd, often an IC50 or EC50 that approximates it; ≥ and ≤ were set here for values at or beyond the usual limits of such assays; conditions: source organism: Zaire ebolavirus
[17] = source organism: Zaire ebolavirus
[18] = source organism: Vaccinia virus L-IPV
[19] = source organism: Vaccinia virus Copenhagen
[20] = source organism: Bacillus anthracis str. A0488
[21] = source organism: Bacillus anthracis str. A2012

## NFHQKKNEI
HLA-A*24:02
  IC50: 8.08 µM
HLA-B*08:01; [17]
  IC50: 66.1 µM

## QPEWFRNIL
HLA-B*07:02 [1]; source organism: Influenza A virus (A/Oklahoma/309/2006(H3N2))
  IC50: 0.188 µM

## YPTAWQSVG
HLA-A*24:02
  IC50: ≥ 209 µM
HLA-B*07:02 [1]; [17]
  IC50: ≥ 174 µM

## SPRMLTPIN
HLA-B*07:02 [1]; [17]
  IC50: 5.08 µM

## RLYDYFTRV
HLA-C*12:03; [18]
  Kd: 0.932 µM
HLA-A*02:01 [2]; [18]
  Kd: 0.0039 µM
HLA-A*03:01 [3]
  Kd: ≥ 59.3 µM
HLA-A*11:01
  Kd: 0.155 µM
HLA-A*31:01
  Kd: 0.411 µM
HLA-A*33:01
  Kd: ≥ 77.7 µM
HLA-A*68:01
  Kd: ≥ 77.7 µM
HLA-B*07:02 [4]
  Kd: 16.8 µM
HLA-B*35:01
  Kd: ≥ 31.5 µM
HLA-B*51:01 [5]
  Kd: ≥ 77.5 µM
HLA-B*53:01
  Kd: ≥ 78.2 µM
HLA-B*54:01
  Kd: ≥ 60.7 µM

## VSARIAALF
HLA-B*58:01; source organism: Mycobacterium tuberculosis
  Kd: 0.036 µM
HLA-C*15:02; source organism: Mycobacterium tuberculosis H37Rv
  Kd: 3.14 µM

## TINDLKMML
HLA-C*15:02; [19]
  Kd: 0.043 µM

## FALKKLIID
HLA-A*02:01 [6]
  IC50: ≥ 161 µM
HLA-B*08:01; [19]
  IC50: ≥ 211 µM

## FEEMYRHIL
HLA-A*24:02
  IC50: 25.8 µM
HLA-B*08:01; [17]
  IC50: ≥ 81.4 µM

## SLSKRERQL
HLA-B*07:02 [1]; [19]
  IC50: 57.5 µM
HLA-B*08:01; [19]
  IC50: ≥ 76.3 µM

## YRSMIAFKL
HLA-C*07:02; source organism: Entamoeba histolytica HM-1:IMSS
  Kd: 0.045 µM

## DSRPQKIWM
HLA-B*08:01; [17]
  IC50: ≥ 95.4 µM

## FRMTENVPL
HLA-C*07:02; [20]
  Kd: 0.048 µM
HLA-B*39:01; [20]
  Kd: 0.0017 µM

## DETFVHSGF
HLA-A*02:03
  Kd: ≥ 20 µM
HLA-A*02:11
  Kd: ≥ 20 µM
HLA-A*02:12
  Kd: ≥ 20 µM
HLA-A*02:16
  Kd: ≥ 20 µM
HLA-A*02:19 [7]
  Kd: ≥ 20 µM
HLA-A*03:01 [8]
  Kd: ≥ 20 µM
HLA-A*23:01
  Kd: ≥ 20 µM
HLA-A*24:03
  Kd: ≥ 20 µM
HLA-A*29:02
  Kd: ≥ 20 µM
HLA-A*68:02
  Kd: ≥ 20 µM
HLA-B*40:01
  Kd: ≥ 20 µM
HLA-A*02:01 [2]; [17]
  Kd: ≥ 20 µM
HLA-A*26:01
  Kd: ≥ 20 µM
HLA-A*69:01
  Kd: ≥ 20 µM
HLA-B*15:01 [9]
  Kd: ≥ 20 µM
HLA-B*15:17 [10]
  Kd: ≥ 20 µM
HLA-B*27:03
  Kd: ≥ 20 µM
HLA-B*39:01; [17]
  Kd: ≥ 20 µM
HLA-B*46:01
  Kd: ≥ 20 µM
HLA-B*51:01 [11]
  Kd: ≥ 20 µM
HLA-B*57:01 [12]
  Kd: ≥ 20 µM

## ALPPRAFEL
HLA-C*07:02; source organism: Mycobacterium tuberculosis F11
  Kd: 0.085 µM

## FLIYFRSPL
HLA-C*07:02; [21]
  Kd: 1.44 µM
HLA-A*02:01 [2]; [21]
  Kd: 0.0106 µM

## TTHHTIPLL
HLA-B*15:17 [13]
  Kd: 0.0659 µM
HLA-B*57:01 [14]
  Kd: 4 µM
HLA-B*58:01; source organism: Salmonella enterica subsp. enterica serovar Typhimurium
  Kd: 3.24 µM
HLA-C*15:02; source organism: Salmonella enterica subsp. enterica serovar Typhi str. CT18
  Kd: ≥ 20 µM

## VAANIVLTV
HLA-C*12:03; source organism: Callithrix jacchus
  Kd: ≤ 0.001 µM
HLA-A*02:01 [2]; source organism: Homo sapiens
  Kd: 0.0145 µM

## SIFERIREA
HLA-A*02:01 [2]; source organism: Toxoplasma gondii RH
  Kd: 0.002 µM
HLA-A*02:19 [15]
  Kd: 1.15 µM

## WQQWDRQSL
HLA-A*02:03
  Kd: ≥ 20 µM
HLA-A*02:11
  Kd: ≥ 20 µM
HLA-A*02:12
  Kd: ≥ 20 µM
HLA-A*02:16
  Kd: ≥ 20 µM
HLA-A*02:19 [7]
  Kd: ≥ 20 µM
HLA-A*03:01 [8]
  Kd: ≥ 20 µM
HLA-A*23:01
  Kd: ≥ 20 µM
HLA-A*24:03
  Kd: ≥ 20 µM
HLA-A*29:02
  Kd: ≥ 20 µM
HLA-A*68:02
  Kd: ≥ 20 µM
HLA-B*15:01 [16]
  Kd: 0.127 µM
HLA-A*02:01 [2]; [17]
  Kd: ≥ 20 µM
HLA-A*26:01
  Kd: ≥ 20 µM
HLA-A*69:01
  Kd: ≥ 20 µM
HLA-B*15:17 [10]
  Kd: ≥ 20 µM
HLA-B*18:01
  Kd: ≥ 20 µM
HLA-B*27:03
  Kd: ≥ 20 µM
HLA-B*46:01
  Kd: ≥ 20 µM
HLA-B*51:01 [11]
  Kd: ≥ 20 µM
HLA-B*57:01 [12]
  Kd: ≥ 20 µM
